“Also recorded” adds a separate entry of the source.
Columns and labels:
[1] = test system: HER1, HER2 and HER3 receptors; test: ERK-Luc, JNK-Luc and NFkB-Luc reporters in HEK293 cells co-transfected with HER1, HER2 and HER3, treated with ligand; type: cell-based, human; conditions: ligand 6 hours; HER1, HER2, HER3 co-transfected HEK293
Protocol: In order to identify reporters to measure the activity of HER2 receptor, expression plasmids of HER1, HER2 and HER3 were co-transfected with different reporter constructs, including ERK-Luc, JNK-Luc and NFkB-Luc, into the HEK293 cells. After 24 hours, the transfected cells were treated with either EGF (HER1 receptor ligand) or NRG1 (HER3 receptor ligand) for 6 hours. The luciferase reporter activity of the transfected cells was measured by Nano-Glo® Luciferase Assay (Promega). […] JNK-Luc reporter was activated when the transfected cells were treated with either HER1 or HER3 ligand (FIG. 11B).
(§1) For cell transfection experiments, HEK293 cells (ATCC) were plated at density of 4-8×10^4 cells per well (96-well plates) or 1-2×10^4 cells per well (384-well plates) in phenol red-free MEM containing 10% FBS and antibiotics. Either DNA plasmid or linear DNA was mixed with TransIT-293 transfection reagent (Mirus Bio LLC). Once cells were trypsinized, DNA transfection mix was added. The cells were then incubated for 24 or 48 hours.

HER2 and HER3 receptors [2] = target: T1, HER2 and HER3 receptors (Homo sapiens, UniProt P04626+P21860); test: ERK-Luc / JNK-Luc / 6×JNK-Luc reporters in HEK293 cells with HER3 and HER2, treated with NRG1; type: cell-based
T1 construct: expressed in transfected cells; host or cells: HEK293
Protocol: (§2) In order to characterize the specificity of activation of ERK-Luc and JNK-Luc reporters upon treatment of HER3 ligand, ERK-Luc or JNK-Luc was co-transfected with expression plasmids of HER3 and wild-type or kinase-dead HER2 receptors into the HEK293 cells. After 24 hours, the transfected cells were treated with NRG1 (HER3 receptor ligand). The luciferase reporter activity of the transfected cells was measured by Nano-Glo® Luciferase Assay (Promega). In FIG. 13A, no difference in ERK-Luc reporter activity was found between the cells transfected with wild-type HER2 and kinase-dead HER2 after the treatment of NRG1. […] However, the activity of JNK-Luc reporter was reduced in the cells transfected with kinase-dead HER2 compared to the cells transfected with wild-type HER2 (FIG. 13B).
(§3) In order to examine the dose response of NRG1 in the activation of JNK-Luc reporters, JNK-Luc with expression plasmids of HER3 and wild-type HER2 receptors were co-transfected into the HEK293 cells. After 24 hours, the transfected cells were treated with a serial dilution of NRG1 (HER3 receptor ligand) for 6 hours. The luciferase reporter activity of the transfected cells was measured by Nano-Glo® Luciferase Assay (Promega).
(§4) In the previous example, the JNK-Luc reporter contained 3 copies of AP-1 binding site. We observed around 2.6 fold induction of reporter activity when the transfected cells were treated with 100 ng/ml of NRG1 (FIG. 14). In order to enhance the activation of reporter activity, the AP-1 binding site was increased from 3 copies to 6 copies. 6×JNK-Luc was co-transfected with expression plasmids of HER3 and wild-type HER2 receptors into the HEK293 cells. After 24 hours, the transfected cells were treated with 100 ng/ml of NRG1 (HER3 receptor ligand) for 6 hours. The luciferase reporter activity of the transfected cells was measured by Nano-Glo® Luciferase Assay (Promega). In FIG. 15, the 6×JNK-Luc reporter was activated by the treatment of NRG1 only when both HER2 and HER3 receptors were expressed (FIG. 15). Approximately a 4.2 fold induction of reporter activity was found.
as §1

HER2 and HER3 receptors [3] = test: as above; type: cell-based, human; conditions: HER3 plus wild-type or kinase-dead HER2; HEK293
Protocol: as §2, §3, §4, §1

wild-type HER2 receptor = target: T2, wild-type HER2 receptor (Homo sapiens, UniProt P04626); test: HER2 reporter cells (clone #1) transfected with wild-type HER2, 384-well plate; type: cell-based
T2 construct: expressed in transfected cells
Protocol: Clone #1 is alternately referred to as the “HER2 reporter cells”. These cells were transiently transfected with the wild-type, constitutively active or kinase-dead forms of HER2 receptors in the 384-well format. After 24 hours, the transfected cells were treated with NRG1. The luciferase reporter activity of the transfected cells was measured by Nano-Glo® Luciferase Assay (Promega). […] The reporter activity of the transfected cells expressing the wild-type form of HER2 receptor was activated upon treatment with NRG1 (FIG. 25). When the cells were transfected with the constitutively active form of HER2 receptor, the reporter activity was activated in the absence of NRG1. However, no activation of reporter was detected when the cells were transfected with the kinase-dead form of HER2 receptor.
The HER2 reporter cells were first transfected with 100 ng of linear expression cassette of HER2. NRG1 was added to the cells 24 hours post-transfection. […] A robust reporter signal was detected even at 2.5 ng/ml of NRG1.
To further reduce the assay turnaround time, different stimulation methods were explored. The first method evaluated was Example 9d which was performed by addition of NRG1 to the cells 24 hours post-transfection for 4, 6 and 24 hours. […] The reporter activity was measured 24 hours post-transfection (FIG. 27A). […]

T862A HER2 receptor = target: T3, T862A HER2 receptor (Homo sapiens, UniProt P04626, T862A); test: HER2 reporter cells transfected with linear expression cassette of T862A HER2, all-in-one method; type: cell-based
T3 construct: expressed in transfected cells; host or cells: HER2 reporter cells (clone #1)
From the text: T862A corresponds to a missense mutation of HER2, which changes Threonine (T) into Alanine (A) at amino acid position of 862. In order to functionally characterize this mutation, PCR-mediated overlapping extension was employed to construct a linear expression cassette of HER2 carrying this mutation. The linear expression cassette of mutant HER2 DNA was transfected into the reporter cells followed by treatment with NRG1 and its inhibitors using the “all-in-one” method. The luciferase reporter activity was measured 24 hours post-transfection.

induction of 6×JNK-Luc reporter activity (HER2 and HER3 receptors [2]; 100 ng/ml of NRG1, 6 hours, HEK293 with HER2 and HER3): ~4.2 fold
induction of JNK-Luc reporter activity (3 copies of AP-1 binding site) (HER2 and HER3 receptors [2]; 100 ng/ml of NRG1, HEK293 with HER2 and HER3): around 2.6 fold
response of mutant HER2 reporter activity to ligand (T862A HER2 receptor): dose-dependent manner
Substance: NRG1: neuregulin-1, HER3 receptor ligand
ERK-Luc reporter activation [1]: activated
JNK-Luc reporter activation [1]: activated
NFkB-Luc reporter activation [1]: no activation
JNK-Luc reporter activation (HER2 and HER3 receptors [2]; HER3 plus HER2, HEK293, serial dilution 6 hours): activated JNK-Luc reporter in a HER2's kinase dependent manner; also recorded: dose dependent activation
ERK-Luc reporter activation (HER2 and HER3 receptors [3]): effectively activated
reporter activation by ligand (wild-type HER2 receptor): activated; also recorded: dose-dependent response; also recorded: good dose response; also recorded: dose dependent manner
